Laboratory results: patent US20180037623A1

Biological target: FGF23 receptor
Experiment: cell-based or functional assay

sKlotho-FGF23-6×His fusion polypeptide gave an Egr-1-luciferase reporter activity, fold change at about 0.6 nM purified fusion, with heparin (20 µg/ml) of 2 fold change, an Egr-1-luciferase reporter activity, fold change at about 1.21 nM purified fusion, no heparin of 1.2 fold change and an Egr-1-luciferase reporter activity, fold change at about 19.3 nM purified fusion, no heparin of 2.4 fold change.
